Laboratory results: patent US20110212106A1 (INSTITUTE FOR RESEARCH IN BIOSCIENCE, published 2011)

Target: T1, peptide … (HIV-1)
T1 construct: also called wt peptide
Assay: Pepscan ELISA

B1: HGN194 (antibody, V domains shown)
VH: EVQLVQSGAEVKKPGESLKISCYGSGYNFNDYWIGWVRQMPGKGLEWMGMIYPDDSDTKYSAAFEGQVTLSADKSISTAYLQWTSLRASDTATYYCARLDGDYADFDSWGQGTLVTVSS
VL: QSVLTQPPSVSAAPGQKVTISCSGTNSNLGDKFVSWYQQLPGTAPRLLIYDNDKRPSGIPDRFSGSKSGASATLAITGLQTGDEADYYCGTWDNSLSALFGGGTKLTVL
notes: also called HGN194.12
binding result: binds
